Measurements published in patent publication US6967029.

Tests used:
[1] = target: endogenous c-kit of COS-1 cells (cells transfected with V19.8 alone); test: 1.6 nM human 125I-SCF^1-164 on membrane fractions of COS-1 cells transfected with V19.8 alone
[2] = target: human recombinant c-kit ligand binding plus transmembrane domains (hckit-LT1) expressed in COS-1 cells (human) (UniProt P10721); test: 1.6 nM human 125I-SCF^1-164 on membrane fractions of COS-1 cells transfected with V19.8:hckit-LT1
[3] = target: endogenous c-kit of COS-1 cells (cells transfected with V19.8 alone); test: 1.6 nM human 125I-SCF^1-164 + 320 nM unlabelled human SCF^1-164, membranes of COS-1 cells transfected with V19.8 alone
[4] = target: human recombinant c-kit ligand binding plus transmembrane domains (hckit-LT1) expressed in COS-1 cells (human) (UniProt P10721); test: 1.6 nM human 125I-SCF^1-164 + 320 nM unlabelled human SCF^1-164, membranes of COS-1 cells transfected with V19.8:hckit-LT1
[5] = target: endogenous c-kit of COS-1 cells (cells transfected with V19.8 alone); test: 1.6 nM rat 125I-SCF^1-164 on membrane fractions of COS-1 cells transfected with V19.8 alone
[6] = target: human recombinant c-kit ligand binding plus transmembrane domains (hckit-LT1) expressed in COS-1 cells (human) (UniProt P10721); test: 1.6 nM rat 125I-SCF^1-164 on membrane fractions of COS-1 cells transfected with V19.8:hckit-LT1
[7] = target: endogenous c-kit of COS-1 cells (cells transfected with V19.8 alone); test: 1.6 nM rat 125I-SCF^1-164 + 320 nM unlabelled rat SCF^1-164, membranes of COS-1 cells transfected with V19.8 alone
[8] = target: human recombinant c-kit ligand binding plus transmembrane domains (hckit-LT1) expressed in COS-1 cells (human) (UniProt P10721); test: 1.6 nM rat 125I-SCF^1-164 + 320 nM unlabelled rat SCF^1-164, membranes of COS-1 cells transfected with V19.8:hckit-LT1

Row | Substance | CPM Bound [1] [cpm] | CPM Bound [2] [cpm] | CPM Bound [3] [cpm] | CPM Bound [4] [cpm] | CPM Bound [5] [cpm] | CPM Bound [6] [cpm] | CPM Bound [7] [cpm] | CPM Bound [8] [cpm]
1 | human SCF^1-164 (radioiodinated; Examples 13 and 15) (from UniProt P21583 26-189) (ligand) | 2160 | 59400 | 2150 | 2380 |  |  |  | 
2 | rat SCF^1-164 (radioiodinated; Example 15) (from UniProt P21581 26-189) (ligand) |  |  |  |  | 1100 | 70000 | 550 | 1100
